# Reference: patent US20160159910A1 (Genentech, published 2016)
# Substitutions are numbered along the chain they refer to. Numbers in names are those of the source.
# B1: hu22C10v2.7-vc-MMAE (antibody)
# heavy: not shown
# light: DIQMTQSPSSLSASVGDRVTITCSATSSISYMHWYQQKPGKAPKGWIYDTSKLAHGVPSRFSGSGSGTDFTLTISSLQPEDFATYYCHQRRSYPFTFGQGTKVEIKRTVAAPSVFIFPPSDEQLKSGTASVVCLLNNFYPREAKVQWKVDNALQSGNSQESVTEQDSKDSTYSLSSTLTLSKADYEKHKVYACEVTHQGLSSPVTKSFNRGEC
# modifications: MC-vc-PAB-MMAE conjugated to reduced cysteine residues of the antibody (sites not given); DAR ~3
# B2: hu22C10v2.7 IgG1 A118C-vc-MMAE (antibody)
# heavy: not shown
# light: B1 light
# modifications: MC-vc-PAB-MMAE on the engineered cysteine A118C (EU numbering); DAR ~2
# B3: humanized 1D11.v1.7 (antibody, V domains shown)
# VH: EVQLVQSGAEVKKPGASVKVSCKASGYTFTSYWIGWVRQAPGQGLEWIGDIYPGGGYTNYNEKFKGRATLTRDTSTSTAYLELSSLRSEDTAVYYCARLDGSSYRGAMDSWGQGTLVTVSS
# VL: DIQMTQSPSSLSASVGDRVTITCKASQGFNKYVAWYQQKPGKAPKLLIYYTSTLQPGVPSRFSGSGSGRDYTLTISSLQPEDFATYYCLQYGNLLYAFGQGTKVEIKR
# notes: also called hu1D11.v1.7; h1D11.v1.7
# B4: hu1D11.v1.9 varC2 (antibody, V domains shown)
# VH: B3 VH with A68V, L70I, D100A
# VL: B3 VL with N93D
# notes: IgG1 / kappa; also called h1D11v1.9_VarC2; h1D11v1.9 variant C2
# B5: humanized 1D11.v1.9 (antibody, V domains shown)
# VH: B3 VH with A68V, L70I
# VL: B3 VL
# notes: also called hu1D11.v1.9; h1D11.v1.9
# B6: hu1D11v1.9-varD-vc-MMAE (antibody)
# heavy: not shown
# light: DIQMTQSPSSLSASVGDRVTITCKASQGFNKYVAWYQQKPGKAPKLLIYYTSTLQPGVPSRFSGSGSGRDYTLTISSLQPEDFATYYCLQYGDLLYAFGQGTKVEIKRTVAAPSVFIFPPSDEQLKSGTASVVCLLNNFYPREAKVQWKVDNALQSGNSQESVTEQDSKDSTYSLSSTLTLSKADYEKHKVYACEVTHQGLSSPVTKSFNRGEC
# modifications: MC-vc-PAB-MMAE conjugated to reduced cysteine residues of the antibody (sites not given); DAR ~3
# B7: hu1D11v1.9-varD IgG1 A118C-vc-MMAE (antibody)
# heavy: not shown
# light: B6 light
# modifications: MC-vc-PAB-MMAE on the engineered cysteine A118C (EU numbering); DAR ~2
# B8: chimeric antibody ch1D11 (antibody, human IgG1, V domains shown)
# VH: QVQLQQSGAELVRPGTSVKMSCKASGYTFTSYWIGWAKQRPGHGFEWIGDIYPGGGYTNYNEKFKGKATLTADKSSSTAYMQFSSLTSEDSAIYYCARLDGSSYRGAMDSWGQGTSITVSS
# VL: DIQMTQSPSSLSASLGGKVTITCKASQGFNKYVAWYQHKPGQCPRLLIHYTSTLQPGIPARFSGSGSGRDYSFSISNLEPEDSATYFCLQYGNLLYAFGGGTKLEIKR
# notes: also called parental 1D11 antibody; antibody 1D11
# B9: ch1D11, slightly modified version with light chain C43G (antibody, V domains shown)
# VH: B8 VH
# VL: B8 VL with C43G
# notes: Human IgG1 / human kappa chimeric antibody; Dylight-488 or -650 labeled in the assay; also called ch1D11 (C43G)
# B10: chimeric antibody ch9B9 (antibody, human IgG1, V domains shown)
# VH: QVQLQQSGAELMKPGASVKMSCKATGYTFSSYWIEWVKQRPGHGLEWIGEILPGTSITTYNAKFKVKATFTADTSSNTAYMQLSSLTSEDSAVYFCARYYFGSSSFYFDYWGQGTSLTVSS
# VL: QAVVTQESALTTSPGDTVTLTCRSSTGAVTTSNYANWVQEKPDHLFTGLIGGTNNRVPGVPARFSGSLIGDKAALTITGAQTEDEAMYFCALWYNNHWVFGGGTKLE
# notes: also called antibody 9B9
# Key:
# human B7-H4 [1] = biological target: T1, human B7-H4 (human, UniProt Q7Z7D3 29-282); assay: cell-based or functional assay
# T1 sequence: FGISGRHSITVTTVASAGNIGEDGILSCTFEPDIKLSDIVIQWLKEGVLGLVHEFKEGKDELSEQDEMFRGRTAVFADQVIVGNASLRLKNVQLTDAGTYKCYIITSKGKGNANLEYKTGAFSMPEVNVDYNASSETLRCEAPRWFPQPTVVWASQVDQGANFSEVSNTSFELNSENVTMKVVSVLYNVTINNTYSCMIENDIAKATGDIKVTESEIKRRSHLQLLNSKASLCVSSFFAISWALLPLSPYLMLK
# cynomolgus monkey B7-H4 [2] = biological target: T2, cynomolgus monkey B7-H4 (cynomolgus monkey, UniProt Q7Z7D3 29-282 (human entry)); assay: FACS titration on 293 cells expressing recombinant cynomolgus B7-H4 (panel '293-cyno B7-H4', lower block), geometric mean fluorescence
# T2 construct: On stably transfected 293 cells; also called cyno B7-H4; recombinant cynomolgus monkey B7-H4
# T2 chain: T1 sequence with L49I, F238L, S248A
# Protocol: (§1) The fluorescent signal was acquired with a BD FACS Calibur and EC₅₀ values were determined with the Graph Pad program Prism 4.
# mouse B7-H4 [3] = biological target: T3, mouse B7-H4 (mouse, UniProt Q7TSP5 29-283); assay: FACS titration on 293 cells expressing recombinant mouse B7-H4 (panel '293-mouse B7-H4', lower block), geometric mean fluorescence
# T3 construct: On stably transfected 293 cells; also called muB7-H4; recombinant mouse B7-H4
# T3 sequence: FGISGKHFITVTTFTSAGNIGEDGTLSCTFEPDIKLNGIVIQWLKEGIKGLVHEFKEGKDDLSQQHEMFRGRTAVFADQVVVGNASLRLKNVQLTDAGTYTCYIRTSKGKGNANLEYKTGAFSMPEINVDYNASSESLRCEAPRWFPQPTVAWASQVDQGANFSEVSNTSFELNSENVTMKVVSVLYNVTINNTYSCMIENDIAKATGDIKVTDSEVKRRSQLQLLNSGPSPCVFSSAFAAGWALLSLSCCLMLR
# Protocol: as §1
# human B7-H4 [4] = biological target: T1, human B7-H4; assay: FACS titration on 293 cells expressing recombinant human B7-H4 (panel '293-human B7-H4', lower block), Dylight-650 goat anti-human IgG, geometric mean fluorescence
# Protocol: as §1
# human B7-H4 [5] = biological target: T1, human B7-H4; assay: Scatchard analysis, 125I-antibody radioligand cell binding on MX-1 tumor cells
# Protocol: (§2) Competition assay mixtures of 50 μL volume containing a fixed concentration of [I¹²⁵] labeled antibody and decreasing concentrations of serially diluted, unlabeled antibody were placed into 96-well plates. […] Cells were detached from the flask using Sigma Cell Dissociation Solution and were washed with binding buffer, which consisted of Dulbecco's Modified Eagle Medium (DMEM) with 1% bovine serum albumin (BSA), […] and 0.1% sodium azide. The washed cells were added to the 96 well plates at a density of 100,000 cells in 0.2 mL of binding buffer. The final concentration of the [I¹²⁵] labeled antibody in each well was ˜250 pM. The final concentration of the unlabeled antibody in the competition assay ranged from 1000 nM through ten 2-fold dilution steps to a 0 nM buffer-only assay. Competition assays were carried out in triplicate. Competition assays were incubated for 2 hours at room temperature. After the 2-hour incubation, the competition assays were transferred to a Millipore Multiscreen filter plate (Billerica, Mass.) and washed 4 times with binding buffer to separate the free from bound [I¹²⁵] labeled antibody. The filters were counted on a Wallac Wizard 1470 gamma counter (PerkinElmer Life and Analytical Sciences Inc.; Wellesley, Mass.). The binding data was evaluated using NewLigand software (Genentech), which uses the fitting algorithm of Munson and Robard to determine the binding affinity of the antibody (Munson and Robard 1980).
# human B7-H4 [6] = biological target: T1, human B7-H4; assay: FACS titration on MX-1 tumor cells, endogenous human B7-H4 (panel 'MX-1 tumor cell line', lower block), geometric mean fluorescence
# Protocol: as §1
# human B7-H4 [7] = biological target: T1, human B7-H4; assay: Scatchard analysis on MX-1 cells; the table puts the affinity of 8.3 nM beside the parent antibody's 7.8 nM
# Protocol: as §2, with “After the 2-hour incubation, the competition assays were transferred to a Millipore Multiscreen filter plate (Billerica, Mass.) and washed 4 times with binding buffer to separate the free from bound [I¹²⁵] labeled antibody.” left out
# rat B7-H4 [8] = biological target: T4, rat B7-H4 (rat, UniProt Q501W4 29-282); assay: Scatchard analysis, radioligand cell binding on 293 cells expressing recombinant B7-H4
# T4 construct: On stably transfected 293 cells; also called recombinant rat B7-H4
# T4 sequence: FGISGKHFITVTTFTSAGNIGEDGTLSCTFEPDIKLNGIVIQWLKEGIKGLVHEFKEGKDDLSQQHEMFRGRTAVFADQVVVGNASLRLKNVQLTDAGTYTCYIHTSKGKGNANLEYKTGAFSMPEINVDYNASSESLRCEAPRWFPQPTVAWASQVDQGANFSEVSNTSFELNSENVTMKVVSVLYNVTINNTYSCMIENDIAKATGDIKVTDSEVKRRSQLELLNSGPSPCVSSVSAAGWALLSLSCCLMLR
# Protocol: as §2
# human B7-H4 [9] = biological target: T1, human B7-H4; assay: as above
# Protocol: as §2
# mouse B7-H4 [10] = biological target: T3, mouse B7-H4; assay: as above
# Protocol: as §2
# cynomolgus monkey B7-H4 [11] = biological target: T2, cynomolgus monkey B7-H4; assay: as above
# Protocol: as §2
# human B7-H4 [12] = biological target: T1, human B7-H4; assay: Scatchard analysis, radioligand cell binding on MX-1 cells (endogenous human B7-H4)
# Protocol: as §2, with “After the 2-hour incubation, the competition assays were transferred to a Millipore Multiscreen filter plate (Billerica, Mass.) and washed 4 times with binding buffer to separate the free from bound [I¹²⁵] labeled antibody.” left out
# rat B7-H4 [13] = biological target: T4, rat B7-H4; assay: Scatchard analysis, 125I-antibody radioligand cell binding on stably transfected 293 cells
# Protocol: as §2
# human B7-H4 [14] = biological target: T1, human B7-H4; assay: as above
# Protocol: as §2
# mouse B7-H4 [15] = biological target: T3, mouse B7-H4; assay: as above
# Protocol: as §2
# cynomolgus monkey B7-H4 [16] = biological target: T2, cynomolgus monkey B7-H4; assay: as above
# Protocol: as §2
# [17] = biological target: T5, human B7-H4 S114A glycosylation mutant (human, UniProt Q7Z7D3 29-282); assay: FACS on 293 cells transfected with S114A human B7-H4 (glycosylation independence)
# T5 construct: Full-length human B7-H4 membrane construct with S114 changed to alanine to prevent N-linked glycosylation at N112-S114; transiently expressed on 293 cells; also called mutated S114A human B7-H4; recombinant human B7-H4 S114A
# T5 sequence: T1 sequence with S86A
binder,measurement,setting,value
B1,"EC50 of in vitro killing (CellTiter-Glo cell viability, 4 days) of 293 cells over-expressing recombinant human B7-H4",human B7-H4 [1],0.0339 µg/mL
B2,"EC50 of in vitro killing (CellTiter-Glo cell viability, 4 days) of 293 cells over-expressing recombinant human B7-H4",human B7-H4 [1],0.0405 µg/mL
B3,EC50,cynomolgus monkey B7-H4 [2],0.68 µg/mL
same,EC50,mouse B7-H4 [3],0.45 µg/mL
same,EC50,human B7-H4 [4],0.66 µg/mL
same,Kd,human B7-H4 [5],8.3 nM
same,EC50,human B7-H4 [6],0.34 µg/mL
same,Fold to Parent mAb,human B7-H4 [7],0.94
B4,Kd,rat B7-H4 [8],1.2 nM
same,Kd,human B7-H4 [9],0.9 nM
same,Kd,mouse B7-H4 [10],2.1 nM
same,Kd,cynomolgus monkey B7-H4 [11],1 nM
same,Kd,human B7-H4 [12],2 nM
B5,EC50,mouse B7-H4 [3],0.36 µg/mL
B6,"EC50 of in vitro killing (CellTiter-Glo cell viability, 4 days) of 293 cells over-expressing recombinant human B7-H4",human B7-H4 [1],0.0554 µg/mL
B7,"EC50 of in vitro killing (CellTiter-Glo cell viability, 4 days) of 293 cells over-expressing recombinant human B7-H4",human B7-H4 [1],0.0819 µg/mL
B8,EC50,cynomolgus monkey B7-H4 [2],0.66 µg/mL
same,EC50,mouse B7-H4 [3],0.38 µg/mL
same,EC50,human B7-H4 [4],0.96 µg/mL
same,Kd,human B7-H4 [5],7.8 nM
same,Kd,rat B7-H4 [13],4.1 nM
same,Kd,human B7-H4 [14],6.1 nM
same,Kd,mouse B7-H4 [15],9.4 nM
same,Kd,cynomolgus monkey B7-H4 [16],4.1 nM
same,EC50,human B7-H4 [6],0.67 µg/mL
B9,fold binding over the isotype control,[17],100 fold
B10,fold binding over the isotype control,[17],100 fold
same,Kd,rat B7-H4 [13],4.7 nM
same,Kd,human B7-H4 [14],6.6 nM
same,Kd,mouse B7-H4 [15],13.7 nM
same,Kd,cynomolgus monkey B7-H4 [16],5.2 nM
